Experimental data as given in US20230407327A1, “INDUCIBLE PROMOTER FOR VIRAL VECTOR PRODUCTION” (ASKLEPIOS BIOPHARMACEUTICAL, INC., priority 2020, published 2023).

B1: Synp-HV3C: synthetic hypoxia-inducible promoter, SEQ ID NO: 3; 4 HRE3 and CMV minimal promoter (nucleic acid)
DNA: ACCTTGAGTACGTGCGTCTCTGCACGTATGGCGATTAAGACCTTGAGTACGTGCGTCTCTGCACGTATGGCGATTAAGACCTTGAGTACGTGCGTCTCTGCACGTATGGCGATTAAGACCTTGAGTACGTGCGTCTCTGCACGTATGGCGATTAATCCATATGCAGGTCTATATAAGCAGAGCTCGTTTAGTGAACCGTCAGATCGCCTAGATACGCCATCCACGCTGTTTTGACCTCCATAGAAGATCGCCACC
B2: Synp-RTV-016: synthetic hypoxia-inducible promoter, SEQ ID NO: 1; 6 HRE2 and CMV minimal promoter (nucleic acid)
DNA: CTGCACGTAGATGATGCGTAGCTAGTAGTCTGCACGTAGATGATGCGTAGCTAGTAGTCTGCACGTAGATGATGCGTAGCTAGTAGTCTGCACGTAGATGATGCGTAGCTAGTAGTCTGCACGTAGATGATGCGTAGCTAGTAGTCTGCACGTAGTAGTCGTATGCTGATGCGCAGTTAGCGTAGCTGAGGTACCGTCGACGATATCGGATCCAGGTCTATATAAGCAGAGCTCGTTTAGTGAACCGTCAGATCGCCTAGATACGCCATCCACGCTGTTTTGACCTCCATAGAAGATCGCCACC
B3: Synp-HYBT: synthetic hypoxia-inducible promoter, SEQ ID NO: 2; 4 HRE3 and a YB-TATA minimal promoter (nucleic acid)
DNA: ACCTTGAGTACGTGCGTCTCTGCACGTATGGCGATTAAGACCTTGAGTACGTGCGTCTCTGCACGTATGGCGATTAAGACCTTGAGTACGTGCGTCTCTGCACGTATGGCGATTAAGACCTTGAGTACGTGCGTCTCTGCACGTATGGCGATTAATCCATATGCTCTAGAGGGTATATAATGGGGGCCA
B4: Synp-RTV-017: synthetic forskolin-inducible promoter, SEQ ID NO: 4; 8× AP1 TFBS and a CMV-MP (nucleic acid)
DNA: TGAGTCAGATGATGCGTAGCTAGTAGTTGAGTCAGATGATGCGTAGCTAGTAGTTGAGTCAGATGATGCGTAGCTAGTAGTTGAGTCAGATGATGCGTAGCTAGTAGTTGAGTCAGATGATGCGTAGCTAGTAGTTGAGTCAGATGATGCGTAGCTAGTAGTTGAGTCAGATGATGCGTAGCTAGTAGTTGAGTCAGTAGTCGTATGCTGATGCGCAGTTAGCGTAGCTGAGGTACCGTCGACGATATCGGATCCAGGTCTATATAAGCAGAGCTCGTTTAGTGAACCGTCAGATCGCCTAGATACGCCATCCACGCTGTTTTGACCTCCATAGAAGATCGCCACC
B5: Synp-RTV-019: synthetic forskolin-inducible promoter, SEQ ID NO: 5; 3×ATF6, 4× AP1 and 3× HIF TFBS and a CMV-MP (nucleic acid)
DNA: TGACGTGCTGATGATGCGTAGCTAGTAGTTGACGTGCTGATGATGCGTAGCTAGTAGTTGACGTGCTGATGATGCGTAGCTAGTAGTTGAGTCAGATGATGCGTAGCTAGTAGTTGAGTCAGATGATGCGTAGCTAGTAGTTGAGTCAGATGATGCGTAGCTAGTAGTTGAGTCAGATGATGCGTAGCTAGTAGTCTGCACGTAGATGATGCGTAGCTAGTAGTCTGCACGTAGATGATGCGTAGCTAGTAGTCTGCACGTAGATGATGCGTAGCTAGTAGTGCAGTTAGCGTAGCTGAGGTACCGTCGACGATATCGGATCCAGGTCTATATAAGCAGAGCTCGTTTAGTGAACCGTCAGATCGCCTAGATACGCCATCCACGCTGTTTTGACCTCCATAGAAGATCGCCACC
B6: Synp-FORCYB1: synthetic forskolin-inducible promoter, SEQ ID NO: 6; 5× cAMPRE and 4× AP1 TFBS and YB-TATA-MP (nucleic acid)
DNA: TGACGTCACGATTACCATTGACGTCACGATTACCATTGACGTCACGATTACCATTGACGTCACGATTACCATTGACGTCAGCGATTAAGATGACTCAGCGATTAAGATGACTCAGCGATTAAGATGACTCAGCGATTAAGATGACTCAGCGATTAATCCATATGCTCTAGAGGGTATATAATGGGGGCCACTAGTCTACTACCAGAAAGCTTGGTACCGAGCTCGGATCCAGCCACC

How the values were obtained:
HEK293-T cells = assay: Luciferase expression from hypoxia-inducible promoters in transiently transfected HEK293-T cells; type: cell-based, human; conditions: for luciferase activity in normoxia: normoxic conditions, FIG. 4
Experimental: HEK293-T are seeded at a density of 20%. Once they reached a confluence between 60 and 80%, the media is changed with DMEM (#21885-025—Thermo Scientific) supplemented with 10% FBS (Gibco, 26140). After 3 hours, the cells are transfected by a transfection mix. The transfection mix is prepared by adding DNA (2 μg per 6 well plate) and PEI 25 kDA (#23966-1—Polyscience) in a ratio of 1:3 in sterile DPBS (#14190169—ThermoFisher Scientific). After mixing, the transfection mix is incubated at room temperature for 30 minutes and then added directly to the cells. After 16 to 18 h post transfection, the media is changed to DMEM+2% FBS. The transfected DNA is one of the vectors where the promoter construct (Synp-RTV-016, Synp-HYBT and Synp-HV3C) or a control promoter (CMV-IE) are used to drive luciferase expression and P-galactosidase containing pcDNA6 plasmid. The β-galactosidase containing plasmid is used as internal control for transfection efficiency (Thermofisher, V22020).
After transfection the cells are incubated for 24 hrs in normoxic conditions (20% oxygen). Induction of the promoters is assessed by using luciferase activity after 24 hrs in normoxia or hypoxia (5% oxygen, 10% carbon dioxide and 85% nitrogen). Hypoxia is achieved by gas displacement in a sealed hypoxia chamber.
(§1) Luciferase activity is measured using LARII (Dual Luciferase Reporter 1000 assay system, Promega, E1980).
Media is removed from the cells at the respective time point (0, 3, 5, 24 hrs after induction). The cells are washed once in 300 μl of DPBS. Cells are lysed by adding 100 μl of passive lysis buffer to the cells and incubation with rocking for 15 minutes. The cell debris is pelleted by centrifugation of the plate at max speed in a benchtop centrifuge for 1 min. 10 μl of supernatant is pipetted into white 96-well plate and luminescence measured by addition of 50 μl of LARII substrate.
β-galactosidase activity is measured as per manufacturer's instructions (Mammalian PGalactosidase Assay Kit, 75707/75710, Thermo Scientific) using 25 µl of lysate. 25 μl of lysate is transferred into a microplate well and mixed with 25 μl of β-galactosidase Assay Reagent, equilibrated to room temperature. The mixture is incubated at 37° C. for 30 min and absorbance measured at 405 nm.
(§2) Luciferase readouts are normalised to β-galactosidase to produce normalised relative luminometer units (RLUs).

HEK293-F cells = assay: Luciferase expression from hypoxia-inducible promoters in transiently transfected HEK293-F cells; type: cell-based, human; conditions: cells placed in hypoxia at 0 hours; FIG. 3
Experimental: 40 ml of cells are grown in a 250 ml vented Erlenmeyer flask (Sigma-Aldrich CLS431144) at 37° C., 20% O2, 8% CO2 with agitation at 100 rpm. Cells are seeded as described in the manufacturer's instructions (300,000 cells/ml). HEK293-F are obtained from Thermofisher, R79007.
One day before transfection, the cells are counted using a haemocytometer and split to 500,000 cells/ml.
On the day of transfection, the cells are seeded to 1,000,000 cells/ml in 500 µl of appropriate medium (Freestyle 293 expression medium, 12338002) in a 24 well plate. […] of DNA per well is then added to 10 μl of OptiMem medium (Thermofisher; 11058021) and incubated for 5 minutes at room temperature.
Concurrently, 0.625 μl of Max reagent (Thermofisher, 16447100) is made up to […] by addition of OptiMem and incubated for 5 minutes at room temperature. After this incubation, both mixes are added to the same tube and incubated at room temperature for 25-30 minutes. The DNA/Max reagent mix (20 μl/well) is then added directly to the cells and the cells incubated at 37° C., 8% CO2 with agitation at 100 rpm. […]
After transfection the cells are incubated for 24 hrs in normoxia conditions (20% oxygen) before being switched to a gas mix of 5% oxygen, 10% carbon dioxide and 85% nitrogen (hypoxia). […] Induction of the promoters is assessed by using luciferase activity after 3, 5 and 24 hrs in hypoxia.
as §1
Media is removed from the cells at the respective time point (0, 3, 5, 24 hrs after induction). […] 10 μl of supernatant is pipetted into white 96-well plate and luminescence measured by addition of 50 μl of LARII substrate.
β-galactosidase activity is measured as per manufacturer's instructions (Mammalian PGalactosidase Assay Kit, 75707/75710, Thermo Scientific) using 25 µl of lysate. […] The mixture is incubated at 37° C. for 30 min and absorbance measured at 405 nm.
as §2

Huh7 (liver) = assay: Luciferase expression from forskolin-inducible promoters in Huh7 cells; type: cell-based, human; conditions: for luciferase activity after induction, promoter expressed from an AAV vector: 20 μM forskolin or 7.2 μM NKH477; for luciferase activity after induction, promoter expressed from an AAV vector / luciferase activity without induction, promoter expressed from an AAV vector: FIG. 8; for luciferase activity after induction: 20 μM forskolin; for luciferase activity after induction / luciferase activity without induction: FIG. 6; for luciferase activity without induction, promoter expressed from an AAV vector: AAV vector containing ITRs
Experimental: Luciferase activity was measured without induction and after induction with 20 μM forskolin or 7.2 μM NKH477.

C2C12 (muscle) cells = assay: Luciferase expression from forskolin-inducible promoter in C2C12 cells; type: cell-based, mouse; conditions: FIG. 7
Text: CMV-IE expression was not analyzed under induced conditions, and thus no result is shown in the graph.

Molecule	luciferase expression / inducibility after 24 hours in hypoxia versus normoxia (HEK293-T cells)	luciferase activity in normoxia (HEK293-T cells)	luciferase activity over time in hypoxia (HEK293-F cells)	luciferase activity after induction, promoter expressed from an AAV vector (Huh7 (liver))	luciferase activity after induction (Huh7 (liver))	luciferase activity without induction, promoter expressed from an AAV vector (Huh7 (liver))	luciferase activity without induction (Huh7 (liver))	luciferase activity after induction (C2C12 (muscle) cells; 20 μM forskolin)	luciferase activity without induction (C2C12 (muscle) cells)
B1	highest	almost no luciferase activity	increase in luciferase activity with time	–	–	–	–	–	–
B2	lowest	almost no luciferase activity	increase in luciferase activity with time	–	–	–	–	–	–
B3	induced to a varying level	almost no luciferase activity	increase in luciferase activity with time	–	–	–	–	–	–
B4	–	–	–	high activity	high activity	low background activity	low background activity	–	–
B5	–	–	–	high activity	high activity	low background activity	low background activity	high activity	low background activity
B6	–	–	–	high activity	–	low background activity	–	–	–
